Data reported in patent US20240287172A1 (SCIRHOM, published 2024).
Numbering of substitutions follows the chain as printed.

Columns and labels:
[1] = target: T1, hiR2-FL-G546A-T7 (human, UniProt Q6PJF5 1-856); assay: FACS on MEF-DKO cells expressing the variant, 3 µg/ml antibody
T1 sequence: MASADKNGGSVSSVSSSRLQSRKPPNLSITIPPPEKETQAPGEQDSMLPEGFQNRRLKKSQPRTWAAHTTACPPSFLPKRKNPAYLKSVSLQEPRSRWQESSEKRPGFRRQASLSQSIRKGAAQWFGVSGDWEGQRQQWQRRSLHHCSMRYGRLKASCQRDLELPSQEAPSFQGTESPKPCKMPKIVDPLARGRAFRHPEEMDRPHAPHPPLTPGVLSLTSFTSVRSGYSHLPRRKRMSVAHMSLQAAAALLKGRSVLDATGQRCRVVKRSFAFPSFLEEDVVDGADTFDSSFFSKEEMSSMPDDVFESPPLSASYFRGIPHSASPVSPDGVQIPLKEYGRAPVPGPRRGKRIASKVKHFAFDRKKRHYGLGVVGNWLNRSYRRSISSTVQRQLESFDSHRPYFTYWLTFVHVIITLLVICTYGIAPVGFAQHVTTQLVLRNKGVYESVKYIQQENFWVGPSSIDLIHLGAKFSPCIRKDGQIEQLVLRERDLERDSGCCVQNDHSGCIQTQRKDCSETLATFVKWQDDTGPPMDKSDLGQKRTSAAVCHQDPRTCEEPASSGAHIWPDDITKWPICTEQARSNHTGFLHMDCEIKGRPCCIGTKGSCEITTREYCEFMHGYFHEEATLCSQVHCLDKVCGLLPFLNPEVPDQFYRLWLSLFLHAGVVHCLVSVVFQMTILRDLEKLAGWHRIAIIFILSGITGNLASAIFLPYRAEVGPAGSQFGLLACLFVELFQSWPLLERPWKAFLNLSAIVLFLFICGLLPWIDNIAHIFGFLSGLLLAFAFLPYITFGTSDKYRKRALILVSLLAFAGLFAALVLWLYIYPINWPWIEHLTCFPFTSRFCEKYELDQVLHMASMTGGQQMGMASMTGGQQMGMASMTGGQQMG
Procedure, shortened: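 Primary stain: antibody 3 μg/ml, 1 h on ice; controls buffer alone. Secondary: PE anti-mouse IgG F(ab′)2 1:100, 1 h on ice, light-protected. Washes at 4° C; read by flow cytometry.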

[2] = target: T2, hiR2-FL-D528I-T7 (human, UniProt Q6PJF5 1-856); assay: FACS, MEF-DKO cells, 3 µg/ml
T2 sequence: T1 sequence with D528I, A546G

B1: antibody 5 (antibody, V domains shown)
VH: QVTLKESGPGILQPSQTLSLTCSFSGFSLSTFGMGVGWIRQPSGKGLEWLAHIWWDDEKYYNSALKSRLTISKATSKNQAFLKIANVDTADTATYYCARISNYGSNYWYFNVWGTGTTVTVSS
VL: QVVLTQSPALMSASPGEKVTMTCSAGSSVSCMYWYQQKPGSSPRVLIYDTSNLASGVPARFTGSGSGTSYSLTISRMEAEDAASYYCQQWNSYPLTFGAGTKLELK
notes: mouse IgG, kappa light chain; also called clone #5; purified antibody 5
- loss of binding vs wild type [1]: ≥ 30%

B2: antibody 3 (antibody, V domains shown)
VH: QVTLKESGPGILQPSQTLSLTCSFSGFSLTTFAMGIGWVRQPSGKGLEWLAHIWWDGEKYNNPVLKSRLTISKDTSKNQVFLRIANVDTPDTATYYCARISSIYYIIDNWGQGTSVTVSS
VL: DIVLTQSPATLSVTPGHSVSLSCRASQSISNNLHWYQKKSHESPRLLIKYVSQSISGIPSRFSGSGSGTDFTLSINSVETEDFGMYFCQQSYNWPLTFGAGTKLELK
notes: mouse IgG, kappa light chain; also called clone #3; purified antibody 3
- loss of binding vs wild type [1]: ≥ 30%

B3: antibody 34 (antibody, V domains shown)
VH: QVTLKESGPGILQPSQTLSLTCSFSGFSLSTFSLGVGWIRQSSGKGLEWLAHIWWDDEKYYNPALKSRLTISKDTSKNQVFLKIANVDAADTATYYCARAYYSKSYYALDYWGQGTSVTVSS
VL: DIQMTQSPSSLSASLGERVSLTCRASQEISGYLSWLQQKPDGTIKRLIYAASTLDSGVPKRFSGSRSGSDYSLAISSLESEDFADYYCLQYANFPFTFGSGTKLEIK
notes: mouse IgG, kappa light chain; also called clone #34; purified antibody 34
- loss of binding vs wild type [1]: ≥ 30%

B4: antibody 43 (antibody, V domains shown)
VH: B1 VH with T3A, P42S, H52N, E58D, S63P, A74D, T75A, S101G, N111D
VL: QIVLTQSPAIMSASPGERVTMTCSANSRISYMYWYQQKPGSSPRLLIYDTSNLASGVPVRFSGSGSGTSYSLTISRMEAEDAATYNCQQWSSYPLTFGAGTKLELK
notes: mouse IgG, kappa light chain; also called clone #43; purified antibody 43
- loss of binding vs wild type [1]: ≥ 30%

B5: antibody 44 (antibody, V domains shown)
VH: B1 VH with G44E, E58D, S63P, A74D, A80I, A85T, D91E, A98S, S101G, N111D
VL: QIVLTQSPAVMSASPGEKVTMTCTASSSVYYMYWYQQTPGSSPRLLIYDTSNLASGVPVRFSGSGSGTSYSLTISRMEAEDAATYYCQQWNTYPLTFGAGTKLELK
notes: mouse IgG, kappa light chain; also called clone #44; purified antibody 44
- loss of binding vs wild type [1]: ≥ 30%

B6: antibody 48 (antibody, V domains shown)
VH: QVQLQQSGTELVRPGTSVKVSCKASGYAFTNYLIEWVKQRPGQGLEWIGVINPGSGFTKYNEKFKGKATLTADKSSSTVYMHLSSLTSEDSAVYFCARGLYRAMDYWGQGTSVTVSS
VL: DIQMTQSPASQSASLGESVTITCLASQTIATWLAWYQQKPGKSPQLLIYGATTLADGVPSRFSGGGSGTKFSFKISSLQAEDFVSYYCQQLYSTPYTFGGGTKLEIK
notes: mouse IgG, kappa light chain; also called clone #48; purified antibody 48
- loss of binding vs wild type [2]: ≥ 30%

B7: antibody 50 (antibody, V domains shown)
VH: B6 VH with T9A, T16A, T30S, V79A, H82Q
VL: B6 VL with A30G, G50A, T52A, T53S, S85N, L91I
notes: mouse IgG, kappa light chain; also called clone #50; purified antibody 50
- loss of binding vs wild type [2]: ≥ 30%
